Measurements: article PMC2175355

Target: RNA polymerase holoenzyme (sigma70);RapA (native) (Escherichia coli;Escherichia coli) (UniProt P0A7Z4+P0A8V2+P0A8T7+P0A800+P00579+P60240)
Test: EMSA

Work on “55-nt RNA with two stem-loops and rA18 tail” yielded a binding signal (fold affinity vs holoenzyme without RapA) greater than 20.
